Target: human CD19 on cells (CD20+ B cells of human PBMC; Raji lymphoma cells) (human) (UniProt P15391)
Experiment: flow cytometry, dose response on human CD20+ lymphocytes

human CD19 on cells (CD20+ B cells of human PBMC; Raji lymphoma cells) (human), sequence (P15391 20-556): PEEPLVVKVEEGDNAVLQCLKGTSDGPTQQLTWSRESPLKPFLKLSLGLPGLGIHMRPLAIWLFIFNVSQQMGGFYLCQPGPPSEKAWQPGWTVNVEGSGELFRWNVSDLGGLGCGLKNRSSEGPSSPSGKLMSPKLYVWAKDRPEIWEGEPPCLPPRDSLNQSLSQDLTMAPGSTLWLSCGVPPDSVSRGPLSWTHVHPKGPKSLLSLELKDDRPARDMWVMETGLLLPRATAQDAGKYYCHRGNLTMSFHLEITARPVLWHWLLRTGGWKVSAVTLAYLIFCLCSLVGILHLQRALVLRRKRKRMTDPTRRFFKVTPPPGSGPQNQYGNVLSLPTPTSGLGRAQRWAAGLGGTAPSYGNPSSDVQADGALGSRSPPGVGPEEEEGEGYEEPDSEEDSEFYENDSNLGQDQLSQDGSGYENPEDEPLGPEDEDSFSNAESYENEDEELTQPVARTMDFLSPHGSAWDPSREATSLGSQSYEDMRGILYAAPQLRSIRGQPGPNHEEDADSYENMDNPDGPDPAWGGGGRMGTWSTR

| EC50 | Substance |
| --- | --- |
| 0.549 µg/mL | 4G7 (mouse anti-human CD19 antibody) |
| 0.0544 µg/mL | HIB19 (mouse anti-human CD19 antibody) |
| 0.209 µg/mL | SJ25C (mouse anti-human CD19 antibody) |
